The assay concerns the target human CD4 on the surface of cells (HeLa-CD4+, C8166, PM1, primary human CD4+ T lymphocytes) (human) (UniProt P01730). Kind of assay: cell-based or functional assay.

“HIV-1JR-FL gp120/gp41 expressed on HeLa cells (HeLa-envJR-FL+)” showed a % RET, fusion of HeLa-envJR-FL+ with PM1 cells, no inhibitor of 7.5 % RET.

Substance “HIV-1LAI gp120/gp41 expressed on HeLa cells (HeLa-envLAI+) (from UniProt P03377 33-861; P03377 33-861)” displayed a % RET, fusion of HeLa-envLAI+ with C8166 cells, no inhibitor of 13 % RET and a % RET, fusion of HeLa-envLAI+ with HeLa-CD4+ cells, no inhibitor of 7.3 % RET.

Consider “OKT4 (mouse monoclonal antibody that binds CD4, Ortho Diagnostic Systems)”, for which the % inhibition of RET at 0.2 µg/ml, HeLa-env+ + HeLa-CD4+ cells, cuvette method is 0% and the % inhibition of RET at 2.0 µg/ml, HeLa-env+ + HeLa-CD4+ cells, cuvette method was determined as 0%.

For “murine MAb OKT4a (anti-CD4 monoclonal antibody, Ortho Diagnostic Systems)”, the % Inhibition of RET, fusion of HeLa-envJR-FL with LW5 primary CD4+ T cells, OKT4A at 3 ug/ml turned out to be 100%; the % Inhibition of RET, fusion of HeLa-envLAI with LW5 primary CD4+ T cells, OKT4A at 3 ug/ml worked out at 100%; the % RET, fusion of HeLa-envJR-FL+ with PM1 cells in the presence of OKT4A (0.3 µg/ml) is 0.7 % RET; the % RET, fusion of HeLa-envLAI+ with C8166 cells in the presence of OKT4A (0.3 µg/ml) amounted to 0.6 % RET. The % RET, fusion of HeLa-envLAI+ with HeLa-CD4+ cells in the presence of OKT4A (0.3 µg/ml) came out at 0.4 % RET and the % inhibition of RET at 0.2 µg/ml, HeLa-env+ + HeLa-CD4+ cells, cuvette method is 65%.

For the origin of these results see patent US7862994.
